In patent US20240336649, “SYNTHESIS OF COVALENT PROTEIN DIMERS THAT CAN INHIBIT MYC-DRIVEN TRANSCRIPTION” (MASSACHUSETTS INSTITUTE OF TECHNOLOGY, published 2024):

Legend:
[1] = molecular target: Max-Max 14 (S-aryl linked covalent dimer) (UniProt P61244;P61244 SEQ:1-80,SEQ:1-80); experiment: BLI; settings: protein: synthetic; tags: chemically synthesized; C-terminal cysteines crosslinked by dithiobenzene; chain copies: 2 stated
[2] = molecular target: Omomyc-Max 17 (S-aryl linked covalent dimer) (UniProt P01106;P61244 SEQ:1-90,SEQ:1-80); experiment: EMSA; settings: protein: synthetic; tags: chemically synthesized; C-terminal cysteines crosslinked by dithiobenzene
[3] = molecular target: Myc-Max 16 (S-aryl linked covalent dimer) (UniProt P01106;P61244 SEQ:1-82,SEQ:1-80); experiment: EMSA; settings: protein: synthetic; tags: chemically synthesized; C-terminal cysteines crosslinked by dithiobenzene
[4] = molecular target: Myc-Myc 13 (S-aryl linked covalent dimer) (UniProt P01106;P01106 SEQ:1-82,SEQ:1-82); experiment: EMSA; negative control; settings: protein: synthetic; tags: chemically synthesized; C-terminal cysteines crosslinked by dithiobenzene; chain copies: 2 stated
[5] = molecular target: Omomyc analog 12 (C-terminal Cys), non-covalent homodimer (UniProt P01106 SEQ:1-90); experiment: EMSA; Omomyc+Omomyc; settings: protein: synthetic; tags: chemically synthesized; C-terminal cysteine added; chain copies: 2 stated
Description: (§1) The three synthetic analogs 10, 11, and 12 can form non-covalent dimers and bind to the target E-box DNA (5′-[…]-3′). […] However, it is not possible to determine which dimeric species form in a solution containing two different monomers. For instance, upon mixing Max (11) and Omomyc (12), three different dimers (Max/Max, Omomyc/Omomyc and Max/Omomyc) can form and potentially bind to DNA (FIG. 18). To assess the activity of these protein complexes in a reliable manner, access to well-defined covalent protein dimers is critical.

[6] = molecular target: Max analog 11 (C-terminal Cys), non-covalent homodimer (UniProt P61244 SEQ:1-80); experiment: EMSA; Max+Max; settings: protein: synthetic; tags: chemically synthesized; C-terminal cysteine added; chain copies: 2 stated
Description: as §1

[7] = molecular target: MYC monomer (bHLHZ, Example 2) (UniProt P01106 SEQ:1-82); experiment: EMSA; negative control, 4 uM protein, 1 uM DNA; settings: protein: synthetic; tags: chemically synthesized by automated flow peptide synthesis
Protocol: (§2) Biophysical characterization confirmed the folding and DNA-binding activity of the four covalent protein dimers 3, 4, 5, and 6. The dimers were first analyzed by sodium dodecyl sulfate polyacrylamide gel electrophoresis (SDS-PAGE). […] Next an electrophoretic mobility shift assay (EMSA) was performed to determine the dimers' DNA binding activity. At a DNA concentration of 1 μM and protein concentration of 2 μM, all dimers formed complexes with the E-Box DNA, as observed by the shift retardation on the gel.
(§3) The E-Box DNA probe (2 μM in binding buffer) was heated to 95° C. for 5 minutes and then let cool down to room temperature over 15 minutes for double-strand annealing. Protein dimer (4 μM in binding buffer: MES 10 mM, KCl 150 mM, MgCl₂ 1 mM, TCEP 1 mM, glycerol 10%, pH=6.5) was added to the DNA (final concentrations: 2 μM protein and 1 μM DNA) and the mixture was incubated for 1 h at room temperature. During the incubation, a 10% polyacrylamide gel was prerun (1 h, 4° C., 100 V) in 1× TBE buffer. After that time, DNA protein mixture (20 μL) was mixed with 6× DNA Loading Dye (4 μL)) and loaded on the gel, which was run at 75 V, for 90 min at 4° C. The gel was washed with water for 20 seconds and then stained with 0.02% ethidium bromide in 1xTBE buffer for 15 min at room temperature. Bands were visualized on a Biorad Gel imager.

[8] = molecular target: Omomyc-Omomyc covalent homodimer 4 (lysine-linked) (UniProt P01106;P01106 SEQ:1-90,SEQ:1-90); experiment: EMSA; 2 uM protein, 1 uM DNA; MES 10 mM, KCl 150 mM, MgCl2 1 mM, pH 6.5, RT; settings: protein: synthetic; tags: chemically synthesized; C-termini linked via Lys-betaAla-Lys linker; chain copies: 2 stated
Protocol: as §2, §3

[9] = molecular target: Omomyc-MAX covalent heterodimer 6 (lysine-linked) (UniProt P01106;P61244 SEQ:1-90,SEQ:1-80); experiment: as above; settings: protein: synthetic; tags: chemically synthesized; C-termini linked via Lys-betaAla-Lys linker; Boc-Gly coupled as last residue of MAX during synthesis
Protocol: as §2, §3

[10] = molecular target: MYC-MAX covalent heterodimer 5 (lysine-linked) (UniProt P01106;P61244 SEQ:1-82,SEQ:1-80); experiment: as above; settings: protein: synthetic; tags: chemically synthesized; C-termini linked via Lys-betaAla-Lys linker; Boc-Gly coupled as last residue of MAX during synthesis
Protocol: as §2, §3

[11] = molecular target: Myc analog 10 (C-terminal Cys) (UniProt P01106 SEQ:1-82); experiment: EMSA; Myc alone cannot homodimerize; settings: protein: synthetic; tags: chemically synthesized; C-terminal cysteine added
Description: as §1

B1: E-box DNA probe (22 bp) (dsDNA)
DNA 1: CCGGCTGACACGTGGTATTAAT
DNA 2: ATTAATACCACGTGTCAGCCGG
binds: binding result [2] | binding result [3] | binding result [5] | binding result [6] | binding result [8] | binding result [9] | binding result [10]
50 nM: Kd [1]
no binding: binding result [4] | binding result [7] | binding result [11]
